Patent US8663616B2, “Enzymatic peracid generation for use in oral care products” (E I du Pont de Nemours and Company, priority 2010, dated 2014)

Key:
Format in all cases: biochemical
[1] = P. fluorescens perhydrolase constructs, peracetic acid in solution (Example 10); settings: 2 μM enzyme, 100 mM H2O2, 1 M sodium acetate pH 5.5, 30 min, 37° C.; no enzyme 9
Procedure: (§1) The detection of peracetic acid followed the method described in Pinkernell et. al. (Analyst, 1997, 122, 567) using colorimetric detection of 2,2′-azino-bis(3-ethylbenzothiazoline(-6-sulfonate (ABTS) oxidation by peracetic acid. Following the formation of peracetic acid with the addition of triacetin and hydrogen peroxide, 90 μL of solution was added to 10 μL of 0.1 M H3PO4 in a well plate. 50 μL of 1 M acetic acid, 50 μL of 0.5 g/L ABTS and 50 μL of 0.002 g/L of KI was added. The solution was allowed to develop for 5 min. The absorbance of the solution was measured at 405 nm using a microplate reader. The peracetic acid concentration was calculated based on a standard curve developed simultaneously using peracetic acid reagent solution.
(§2) For P. fluorescens constructs, the solution activity was measured by mixing a 1 mL solution containing 2 μM enzyme, 100 mM H2O2 in a 1 M sodium acetate buffer, pH 5.5. The solution was incubated at 37° C. for 30 min. As described in Example 7, the reaction was stopped by removing a portion to H3PO4 and a 10 μL aliquot was removed and diluted for detection via ABTS oxidation. For assessment of binding and activity on hydroxyapatite, the P. fluorescens enzymes were exposed to hydroxyapatite particles at 20 μM in 10 mM phosphate buffer as described in Example 8 using 100 mg of buffer washed HAP particles (Macro-prep Ceramic Hydroxyapatite TYPE I, 80 μm size BioRad, Hercules, Calif.). Following centrifugation and removal of the enzyme solution, the particles were rinsed with phosphate butter by centrifuging and removing the supernatant. A 200 μL solution containing 300 mM H2O2 in 1 M sodium acetate buffer, pH 5.5 was added to the particles and incubated at 37° C. for 10 min. As described in Example 7, the reaction was stopped by removing a portion to H3PO4 and a 10 μL aliquot was removed and diluted for detection via ABTS oxidation.

[2] = P. fluorescens perhydrolase constructs, peracetic acid when bound to hydroxyapatite particles (Example 10); settings: 100 mg HAP particles exposed to 20 μM enzyme; 300 mM H2O2, 1 M sodium acetate pH 5.5, 10 min, 37° C.; no enzyme 17
Procedure: as §1, §2

[3] = M. smegmatis aryl esterase constructs, peracetic acid in solution (Example 10); settings: 0.5 μM enzyme, 100 mM triacetin, 100 mM H2O2, pH 7.2, 30 min, 37° C.; no enzyme 158
Procedure: as §1
For aryl esterase constructs, the enzyme activity in solution was measured by making a 1 mL solution of 0.5 μM of each enzyme, 100 mM triacetin, and 100 mM H2O2 in 100 mM phosphate buffer, pH 7.2. The solution was mixed and incubated for 30 min, at 37° C. As described in Example 7, the reaction was stopped by removing a portion to H3PO4 and a 10 μL aliquot was removed and diluted for detection via ABTS oxidation.

[4] = M. smegmatis aryl esterase constructs, peracetic acid when bound to hydroxyapatite particles (Example 10); settings: 33 mg HAP particles exposed to 10 μM enzyme; 100 mM triacetin, 100 mM H2O2, 30 min, 37° C.; no enzyme 323
Procedure: as §1
For assessment of binding and activity on hydroxyapatite, the aryl esterase enzymes were exposed to hydroxyapatite particles as described in Example 8 using 33 mg of buffer washed HAP particles (Macro-prep Ceramic Hydroxyapatite TYPE I, 80 μm size BioRad, Hercules, Calif.) using a 10 μM solution in 10 mM phosphate buffer. Following centrifugation and removal of the enzyme solution, the particles were rinsed with phosphate butter by centrifuging and removing the supernatant. A 200 μL solution containing 100 mM triacetin, 100 mM H2O2 and 100 mM phosphate buffer, pH 7.2 was added to the particles and incubated at 37° C. for 30 min. As described in Example 7, the reaction was stopped by removing a portion to H3PO4 and a 10 μL aliquot was removed diluted for detection via ABTS oxidation.

Row | Molecule | Peracetic acid (ppm) In Solution [1] [ppm] | Peracetic acid (ppm) On Hydroxyapatite [2] [ppm] | Peracetic acid (ppm) In Solution [3] [ppm] | Peracetic acid (ppm) On Hydroxyapatite [4] [ppm]
1 | EZ-36: M. smegmatis aryl esterase ArE S54V, untargeted, SEQ ID NO: 460 (protein, listed as Mycobacterium smegmatis) MAKRILCFGDSLTWGWVPVEDGAPTERFAPDVRWTGVLAQQLGADFEVIEEGLVARTTNIDDPTDPRLNGASYLPSCLATHLPLDLVIIMLGTNDTKAYFRRTPLDIALGMSVLVTQVLTSAGGVGTTYPAPKVLVVSPPPLAPMPHPWFQLIFEGGEQKTTELARVYSALASFMKVPFFDAGSVISTDGVDGIHFTEANNRDLGVALAEQVRSLL | – | – | 2697 | 452
2 | EZ-40: ArE-link1-DenP308-H6, SEQ ID NO: 464 (protein) MAKRILCFGDSLTWGWVPVEDGAPTERFAPDVRWTGVLAQQLGADFEVIEEGLVARTTNIDDPTDPRLNGASYLPSCLATHLPLDLVIIMLGTNDTKAYFRRTPLDIALGMSVLVTQVLTSAGGVGTTYPAPKVLVVSPPPLAPMPHPWFQLIFEGGEQKTTELARVYSALASFMKVPFFDAGSVISTDGVDGIHFTEANNRDLGVALAEQVRSLLGPGSGGAGSPGSAGGPGSDPTKPPRTPTANTSRPHHNFGSGGGGSPHHHHHH | – | – | 3605 | 2476

Continued, values first:

Row | Peracetic acid (ppm) In Solution [1] [ppm] | Peracetic acid (ppm) On Hydroxyapatite [2] [ppm] | Peracetic acid (ppm) In Solution [3] [ppm] | Peracetic acid (ppm) On Hydroxyapatite [4] [ppm] | Molecule
3 | 58 | 97 | – | – | EZ-44: Pfl-link1-HC263-H6, SEQ ID NO: 479 (protein) MSTFVAKDGTQIYFKDWGSGKPVLFSHGWPLDADMWEYQMEYLSSRGYRTIAFDRRGFGRSDQPWTGNDYDTFADDIAQLIEHLDLKEVTLVGFSMGGGDVARYIARHGSARVAGLVLLGAVTPLFGQKPDYPQGVPLDVFARFKTELLKDRAQFISDFNAPFYGINKGQVVSQGVQTQTLQIALLASLKATVDCVTAFAETDFRPDMAKIDVPTLVIHGDGDQIVPFETTGKVAAELIKGAELKVYKDAPHGFAVTHAQQLNEDLLAFLKRGPGSGGAGSPGSAGGPGSPSAQSQLPDKHSGLHERAPQRYGPEPEPEPEPIPEPPKEAPVVIEKPKPKPKPKPKPPAHDHKNQKETHQRHAAGSGGGGSPHHHH
4 | 79 | 68 | – | – | EZ-43: Pfl-link1-DenP308-H6, SEQ ID NO: 467 (protein) MSTFVAKDGTQIYFKDWGSGKPVLFSHGWPLDADMWEYQMEYLSSRGYRTIAFDRRGFGRSDQPWTGNDYDTFADDIAQLIEHLDLKEVTLVGFSMGGGDVARYIARHGSARVAGLVLLGAVTPLFGQKPDYPQGVPLDVFARFKTELLKDRAQFISDFNAPFYGINKGQVVSQGVQTQTLQIALLASLKATVDCVTAFAETDFRPDMAKIDVPTLVIHGDGDQIVPFETTGKVAAELIKGAELKVYKDAPHGFAVTHAQQLNEDLLAFLKRGPGSGGAGSPGSAGGPGSDPTKPPRTPTANTSRPHHNFGSGGGGSPHHHHHH
5 | 64 | 63 | – | – | EZ-42: Pfl-link1-(GK)5-H6, SEQ ID NO: 466 (protein) MSTFVAKDGTQIYFKDWGSGKPVLFSHGWPLDADMWEYQMEYLSSRGYRTIAFDRRGFGRSDQPWTGNDYDTFADDIAQLIEHLDLKEVTLVGFSMGGGDVARYIARHGSARVAGLVLLGAVTPLFGQKPDYPQGVPLDVFARFKTELLKDRAQFISDFNAPFYGINKGQVVSQGVQTQTLQIALLASLKATVDCVTAFAETDFRPDMAKIDVPTLVIHGDGDQIVPFETTGKVAAELIKGAELKVYKDAPHGFAVTHAQQLNEDLLAFLKRGPGSGGAGSPGSAGGPGSGKGKGKGKGKHHHHHH
